From patent US20230349919A1 (Regeneron, published 2023) come the findings set out here.

In assay [1] the target is T1, human IL-4Rα (hIL-4Rα) monomeric protein (human, UniProt P24394 26-232, limits assumed).
T1 construct: also called hIL-4Rα antigen; barcoded hIL-4Rα
The assay can be described thus: Biacore (SPR). (SPR reads the build-up and loss of mass on a sensor chip optically.)

Assay [2] deals with T1, human IL-4Rα (hIL-4Rα) monomeric protein. Put plainly: barcoded-antigen count on source cell (scRNA-seq).
Assay [3] has the same target. Put plainly: Biacore (SPR); negative log10 of Kd.
The target of assay [4] is T2, Der p 2 (house dust mite, UniProt P49278 18-146).
T2 construct: Also used oligonucleotide-barcoded for cell staining
T2 sequence (looked up): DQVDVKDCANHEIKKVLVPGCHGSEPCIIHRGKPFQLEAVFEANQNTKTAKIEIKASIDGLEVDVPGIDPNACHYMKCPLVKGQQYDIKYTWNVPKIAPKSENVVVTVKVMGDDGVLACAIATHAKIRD
The assay can be described thus: centered log-ratio of barcode count. The text has this: (§1) The barcoded antigen library was mapped by the CellRanger software to a custom short-read reference that contained the DNA tag sequences of the four barcoded antigens, namely, Der p 1, Der p 2, Der f 1 and Ole e 1. These tag sequences were quantified across all cells and were normalized by taking the centered log-ratio (CLR) per barcoded antigen across each sample capture. In addition, background antigen signal for each barcoded antigen was removed by DSB (Denoised and Scaled by Background). Both the CLR and the DSB normalized values were used to quantify the target antigen signals, namely, those for Der p 1, Der p 2 and Der f 1, against the control signal, namely, that for Ole e 1.

The target of assay [5] is T3, Ole e 1 (olive, UniProt P19963 1-145).
T3 construct: Also used oligonucleotide-barcoded for cell staining; also called olive allergen; negative control allergen
T3 sequence (looked up): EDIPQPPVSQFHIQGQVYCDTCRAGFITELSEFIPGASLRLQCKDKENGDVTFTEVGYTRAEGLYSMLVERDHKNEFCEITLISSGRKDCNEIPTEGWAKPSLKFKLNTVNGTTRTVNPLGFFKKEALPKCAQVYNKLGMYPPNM
Put plainly: centered log-ratio of barcode count.
Text: as §1

Assay [6] deals with T2, Der p 2. The assay can be described thus: barcode rank score against control Ole e 1.
For assay [7], the target named is T2, Der p 2. Put plainly: barcoded-antigen count on source cell.
The target in assay [8] is T3, Ole e 1. Put plainly: barcoded-antigen count on source cell.

Changes are numbered by the printed parent chain.

B1: Table 1 Line # 24 antibody (SP_B_cell) (antibody, human IgG4, V domains shown)
VH: EVQLVESGGDLVQPGTSLRLSCAASGFTFDDYAMHWVRQTPGQGLEWVSGINWNSGTIGYADSVKGRFTISRDNAKNSLFLQMNSLRAEDSAFYYCTKDIGGSYYASDFWGQGTLVTVSS
VL: DIQMTQSPSSLSASVGDRVTITCRASQRISTDLNWYQQKSGKAPNLLIYGASSLQSGVPSRFSGSGSGTDFILTISTLQPEDFATYYCQQSYSTPFTFGPGTKVDIK
notes: Cloned with human IgG4/human Igk constants for Kd; barcode counts are of the source cell's own IgG
Usually Kd stands for the constant that tells how readily two partners part at equilibrium. On to B1, for which binding in assay [1] was characterised by a dissociation constant (Kd) of 207 nM. This molecule also showed an REGN560.L15_ab_raw in assay [2] of 10800 counts. The same molecule gave a negLog10Kd in assay [3] of 6.68.

B2: IgE mAb 8_2 (antibody, V domains shown)
VH: QVLLKESGPGLVAPSQSLSITCTVSGFSLTSYGVSWVRQPPGKGLEWLGVIWGDGNTDYHSALISRLSIRKDNSKSQVFLKLNSLQTDDTATYYCAIGSPFAYWGQGTLVTVSA
VL: DVLMTQTPLSLPVSLGDQVSISCRSSQNIVHSTGNTYLEWYLQKPGQSPKLLIFKVSNRLSGVPDRFSGSGSGTDFTLNISRVEAADLGIYSCFQGSHVPFTFGSGTKLEIK
notes: IgE (IGHE, IGKC) from HDM-exposed mouse, BoneMarrow
With B2, in assay [4], the Derp2_ab_clr worked out at 0.655. The Olee1_ab_clr in assay [5] is -1.13. For the same molecule, in assay [6], the Derp2_ab_rank is 0.837. The same molecule had a Derp2_ab_raw in assay [7] of 22 counts. This molecule also yielded an Olee1_ab_raw in assay [8] of 0 counts.

B3: Table 1 Line # 25 antibody (SP_B_cell) (antibody, human IgG4, V domains shown)
VH: EVQLVESGGTVERPGGSLRLSCAASGFTFDDYGMSWVRQAPGKGLEWVSGTSWNGGHIGYADSVKGRFIISRDNAKNSLYLQINSLRVEDTALYYCTRDSTSSWYGVFDFWGQGTLVTVSS
VL: DIQMTQSPSSLSASVGDRVTITCRASQDISINLAWYQQKPGKTPKLLIYAAASTLQSGVPSRFSGSGSGTDFTLTISSLQPEDVATYYCQNYNSAPRTFGQGTKVEIK
notes: as for B1
Regarding B3, the Kd in assay [1] stood at 97.6 nM. Moreover, in assay [2], the REGN560.L15_ab_raw worked out at 10600 counts. In assay [3], this molecule had a negLog10Kd of 7.01.

B4: Table 1 Line # 28 antibody (SP_B_cell) (antibody, human IgG4, V domains shown)
VH: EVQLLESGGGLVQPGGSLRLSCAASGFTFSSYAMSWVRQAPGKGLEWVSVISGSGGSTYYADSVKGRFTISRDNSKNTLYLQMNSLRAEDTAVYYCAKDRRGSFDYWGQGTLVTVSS
VL: DIQMTQSPSSVSASVGDRVTITCRASQGISSWFAWYQQKPGKAPKLLIYAASSLLSGVPSRFSGSGSGTDFTLTISSLQPEDFATYYCQQANSFPFTFGPGTKVDFK
notes: as for B1
In assay [1], B4 yielded a Kd of 146 nM. Moreover, the REGN560.L15_ab_raw in assay [2] came to 9450 counts. Further, the negLog10Kd in assay [3] is 6.84.

B5: Table 1 Line # 29 antibody (SP_B_cell) (antibody, V domains shown)
VH: EVQLLESGGGLVQPGGSLRLSCAASGFTFSSYAMSWVRQAPGKGLEWVSAISGSGGSTYYADSVKGRFTISRDNSKNTLYLQMNSLRAEDTAIYYCARYGNWNYIWGQGTLVTVSS
VL: B4 VL with F33L, L55Q, F96L, P100G, D105E, F106I
B5 yielded a dissociation constant (Kd) in assay [1] of 54.8 nM. The REGN560.L15_ab_raw in assay [2] is 9190 counts. In assay [3], this molecule yielded a negLog10Kd of 7.26.

B6: Table 1 Line # 26 antibody (SP_B_cell) (antibody, human IgG4, V domains shown)
VH: QVQLQQSGPGLVKPSQTLSLTCAISGDSVSSNIATWNWIRQSPSRGLECLGRTYYRSKWYSDYAVSVKSRITINPDTSKNQFSLQLNSVTPEDTAVYYCARGWNYGYYFDYWGQGTLVTVSS
VL: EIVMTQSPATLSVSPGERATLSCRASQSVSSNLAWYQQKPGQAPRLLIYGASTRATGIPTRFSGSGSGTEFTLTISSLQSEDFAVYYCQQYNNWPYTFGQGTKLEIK
notes: as for B1
B6: the dissociation constant Kd in assay [1] turned out to be 112 nM. The REGN560.L15_ab_raw in assay [2] amounted to 10400 counts. In addition, the negLog10Kd in assay [3] amounted to 6.95.

B7: Table 1 Line # 32 antibody (SP_B_cell) (antibody, human IgG4, V domains shown)
VH: EVQLVESGGGLVQPGRSLRLSCAASGFTFDDYAMHWVRQAPGKGLEWVSGVNWNGVSLGYADSVKGRFTISRDNAKNSLYLQMNSLRAEDTAFYYCAKDSGSYHYYYGMDGWGQGTTVTVSS
VL: DIQMTQSPSSLSASVGDRVTITCRASQGIRNDLGWYQQKPGKDPKRLIFAATNLHGGVPSRFSGGVSGTEFTLTISSLQPEDFATYYCLQHNSYPLTFGGGTKVEIK
notes: as for B1
For the molecule B7, the Kd in assay [1] was 58.1 nM. In assay [2], this molecule came in with an REGN560.L15_ab_raw of 7910 counts. In assay [3], this molecule registered a negLog10Kd of 7.24.

B8: Table 1 Line # 6 antibody (BM_Plasma_cell) (antibody, human IgG4, V domains shown)
VH: EVQLVESGGDLVQPGRSLRLSCAASGFTFDDYAMHWVRQAPGKGLEWVSGISWNGNSLGYVDSVKGRFTVSRDNAKNSLYLQMNSLRAEDTALYYCTKDTGSYHSYYGLDVWGQGTTVTVSS
VL: B7 VL with D43A, F49Y, T52S, N53S, H55P, G56S, G65S, V66G, H91L, S93T
notes: as for B1
Regarding B8, the affinity in assay [1], expressed as Kd, was 136 nM. In assay [2], this molecule displayed an REGN560.L15_ab_raw of 4140 counts. The molecule also registered a negLog10Kd in assay [3] of 6.87.

B9: IgE mAb 13_2 (antibody, V domains shown)
VH: EVQLQQSGPELVKPGASVKISCKASGYTFTDYYMNWVKQSHGKSLEWIGDINPNNGGTSYNQKFKGKATLTVDKSSSTAYMELRSLTSEDSAVYYCAYGPPRGPPWFAYWGQGTLVTVSA
VL: DIVLTQSPASLAVSLGQRATISCRASKSVSTSGYSYMHWYQQKPGQPPKLLIYLASNLESGVPARFSGSGSGTDFTLNIHPVEEEDAATYYCQHSRELPWTFGGGTKLEIK
notes: IgE (IGHE, IGKC) from HDM-exposed mouse, LymphNode
In the case of B9, the Derp2_ab_clr in assay [4] was found to be 1.62. In addition, in assay [5], the Olee1_ab_clr came to 0.0287. Further, the Derp2_ab_rank in assay [6] is 0.858. Moreover, in assay [7], the Derp2_ab_raw amounted to 46 counts. In assay [8], this molecule showed an Olee1_ab_raw of 1 counts.

B10: Table 1 Line # 31 antibody (SP_B_cell) (antibody, human IgG4, V domains shown)
VH: EVQLVESGGGLVQPGRSLRLSCAASGFTFDDYAMHWVRQAPGKGLEWVSGISWNSGNIGYADSVKGRFTISRDNANNSLYLQMNSLRAEDTALYYCAKDYSSAWYGYFDYWGQGTLVTVSS
VL: not shown
notes: as for B1
In turn, B10 showed a dissociation constant Kd in assay [1] of 133 nM. Further, the REGN560.L15_ab_raw in assay [2] came out at 8520 counts. Further, the negLog10Kd in assay [3] is 6.88.

B11: Table 1 Line # 3 antibody (BM_Plasma_cell) (antibody, human IgG4, V domains shown)
VH: B10 VH with A40V, P41T, S52N, K65R, N76K, Y100S, S101G, A103S, Y110L, Q113R
VL: DIQMTQSPSTLSASVGDRVTITCRASQSISRWLAWYQQKPGKAPKFLIYKASSLESGVPSRFSGSGSGTEFTLTISSLQPDDFATYYCQQYNSDSRTFGQGTKVEIK
notes: as for B1
The molecule B11 displayed a Kd in assay [1] of 537 nM. In addition, the REGN560.L15_ab_raw in assay [2] came to 6320 counts. In assay [3], this molecule had a negLog10Kd of 6.27.

B12: Table 1 Line # 19 antibody (BM_Plasma_cell) (antibody, human IgG4, V domains shown)
VH: B10 VH with Y32F, A40E, S55G, N76K, L93F, Y100V
VL: B11 VL with I29V, R31S, F46L, S60L, Q90V
notes: as for B1
The molecule B12 gave a Kd in assay [1] of 12.1 nM. The REGN560.L15_ab_raw in assay [2] was determined as 2060 counts. Besides, the negLog10Kd in assay [3] worked out at 7.92.

B13: Table 1 Line # 4 antibody (BM_Plasma_cell) (antibody, human IgG4, V domains shown)
VH: B10 VH with Y32F, N57S, N76K, A97T, Y100S, A103S, Y110L, Q113R
VL: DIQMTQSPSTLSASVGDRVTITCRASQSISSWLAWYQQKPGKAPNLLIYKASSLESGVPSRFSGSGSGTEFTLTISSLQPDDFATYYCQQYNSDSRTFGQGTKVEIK
notes: as for B1
Regarding B13, in assay [1], the Kd stood at 158 nM. This molecule gave an REGN560.L15_ab_raw in assay [2] of 5050 counts. The molecule also yielded a negLog10Kd in assay [3] of 6.8.

B14: Table 1 Line # 21 antibody (SP_B_cell) (antibody, human IgG4, V domains shown)
VH: EVQLVESGGGVVRPGGSLRLSCAASGFTFDDYGMSWVRQAPGKGLEWVSGINWNGGSTGYADSVKGRFTMSRDNAKKSLYLQMNSLRAEDTAFYHCARDDSSSLYGYFQHWGQGTLVTVSS
VL: DIQMTQSPSSLSASVGDRVTITCRASQGISIYLAWYQQKPGKVPKLLIYAASTLQSGVPSRFSGSGSGTDFTLTISSLQPEDVATYYCQNYNSAPRTFGQGTKVEIK
notes: as for B1
Consider B14, for which, in assay [1], the Kd came out at 177 nM. This molecule yielded an REGN560.L15_ab_raw in assay [2] of 17400 counts. In assay [3], the negLog10Kd was determined as 6.75.

B15: Table 1 Line # 12 antibody (BM_Plasma_cell) (antibody, human IgG4, V domains shown)
VH: QVQLVESGGGVVQPGRSLRLSCAASGFTFSSYGMHWVRQAPGKGLEWVSVISYDGSNKYYADSVKGRFTISRDNSKNTLFLQVNSLRAEDTAVYYCAKEGRTGFDYWGQGTLVTVSS
VL: B14 VL with S26R, I31N, Y36F, N90K, R96W
notes: as for B1
Turning to B15, in assay [1], the equilibrium dissociation constant (Kd) is 34.5 nM. The molecule also came in with an REGN560.L15_ab_raw in assay [2] of 3180 counts. Further, the negLog10Kd in assay [3] stood at 7.46.

B16: Table 1 Line # 5 antibody (BM_Plasma_cell) (antibody, V domains shown)
VH: QVQLVQSGAEVKKPGASVKVSCKASGYTFTGYYIYWVRQAPGQGLEWMGWINPNSGGTNYAQKFQGRVTMTRDTSISTVYMELSRLRSDDAAVYYCAKRKRGLDGWGQGTTVTVSS
VL: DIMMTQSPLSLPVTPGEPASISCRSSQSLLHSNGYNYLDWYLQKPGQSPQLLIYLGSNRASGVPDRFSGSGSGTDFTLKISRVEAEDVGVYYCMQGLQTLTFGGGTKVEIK
notes: as for B1
B16 displayed a dissociation constant (Kd) in assay [1] of 23.8 nM. This molecule also came in with an REGN560.L15_ab_raw in assay [2] of 4410 counts. In assay [3], this molecule came in with a negLog10Kd of 7.62.
